From paper PMC7552008

Experiments:
[1] = target: wild type H7N1 NS1 RBD (RNA-binding domain of influenza A virus non-structural protein NS1, residues 1-73) (influenza A virus (avian H7N1)); assay: crystal structure
[2] = target: NS1 RBD H5N1 (Influenza A virus (H5N1; allele A)) (UniProt Q5H7J4); assay: competition EMSA
[3] = target: T1, NS1 RBD H7N1 (Influenza A virus (avian H7N1; allele B)) (UniProt Q1PST0); assay: competition EMSA
T1 sequence: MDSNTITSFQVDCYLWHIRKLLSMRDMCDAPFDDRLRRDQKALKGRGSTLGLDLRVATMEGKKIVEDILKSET

[4] = target: NS1 RBD H3N2 (Influenza A virus (H3N2)) (UniProt I6T1Z2); assay: EMSA
[5] = target: NS1 RBD H5N1 (Influenza A virus (H5N1; allele A)) (UniProt Q5H7J4); assay: EMSA
[6] = tested on: NS1 RBD pdmH1N1 (Influenza A virus (pandemic H1N1)); assay: EMSA

Substance	IC50 [2] [nM]	IC50 [3] [nM]	further results
wild type H7N1 NS1 RBD (RNA-binding domain of influenza A virus non-structural protein NS1, residues 1-73) (domain or fragment)			stoichiometry N [1]: 2
AGACAGCAUUAUGCUGUCUUU / AGACAGCAUUAUGCUGUCUUU [ZKO]	90		
GGUAACAACUCGUCAUAGGUCACUUGAUUGAAGUAUGACGGGCUGUUACC [DM03-midi]	1.8	2.8	
GGUAACUGUAGAGGUUACAGAGAUGUAACCUCACCAGUUACC [shDM03-GAGA]	1.2	0.64	
GGUAACUGUAGAGGUUACAGAGAUGUAACCUCUACAGUUACC [shDM02-GAGA]	0.41	0.24	
CGCCUGUGUAGAGGUUACAGAGAUGUAACCUCACCACAGGCG [shDM05-GAGA]	100		
GGUAACUGUAGAGGAUGGAGAGAUCCAUCCUCUACAGUUACC [shDM06-GAGA]	1.1	0.85	
GGUAACCACAUGAGUUACAGCAAAAGACCUGUGUAACUCAUGCUGUUACC [DM01-midi]	2.2	2.7	
GGUAACUGUUACAGUUACC / GGUAACUGUUACAGUUACC [AWFC01]	1		Kd [4]: 3.7 nM; Kd [5]: 0.98 nM; Kd [6]: 2.05 nM
